Results from paper PMC5172437.
Like-named read-outs stand apart in the source and are kept apart here.

Legend:
[1] = target: T1, human tumor necrosis factor alpha (hTNFa) (human, UniProt P01375 77-233); assay: ELONA
[2] = target: T1, human tumor necrosis factor alpha …
[3] = target: T1, human tumor necrosis factor alpha …; assay: ELONA; remark: listed apart in the source
[4] = target: T1, human tumor necrosis factor alpha …; remark: listed apart in the source
[5] = target: T1, human tumor necrosis factor alpha …; assay: ELONA; remark: listed apart in the source

T1 sequence (P01375 77-233): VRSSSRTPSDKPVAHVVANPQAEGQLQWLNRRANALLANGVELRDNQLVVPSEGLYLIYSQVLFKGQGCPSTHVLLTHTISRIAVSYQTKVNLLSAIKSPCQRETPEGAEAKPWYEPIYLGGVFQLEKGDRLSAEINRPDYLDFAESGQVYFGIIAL

Row | Binder | binding result [3] | further results
1 | CGUAUAUACGGAUUAGGUUGUAGCUCAGACCAGUAAUGUC (ssRNA) [14.8 random region] |  | binding result [1]: binds
2 | UACGGAUUAGGUUGUAGCUCAGACCAGUA (ssRNA) [T4.14.8 (29 nt)] |  | binding result [2]: binds
3 | GGUCCCACAUAGGUUGGUCUUGUUGUAUGGGCUGUUUGCA (ssRNA) [18.10 random region] | binds | 
4 | GGAGUAUCUGAUGACAAUUCGGAGCUCC (ssRNA) [T3.11.7 (28 nt)] |  | binding result [4]: binds
5 | CAAGCCGAGGGGGAGUAUCUGAUGACAAUUCGGAGCUCCA (ssRNA) [11.7 random region] |  | binding result [5]: binds
6 | CGCAUCGUUUGCGUGGCGUGUCCGGGCGCCGAUUCGUAAA (ssRNA) [7.5 random region] |  | binding result [1]: binds
7 | CGUUGUAGUAGUGGCUUGGGCAUAACUCAGUUAAACACUA (ssRNA) [20.4 random region] | binds | 
8 | CCCCGGGUUCUGUAUGAUCCGACCGGUCAGAUAAGACCAC (ssRNA) [3.1 random region] | binds | 
9 | AGGACGUACUUGGAAAAGAGGCGCGAAGAACCUGGUAUGU (ssRNA) [8.6 random region] | binds | 
10 | CGUGCUAGAUGCUACGAGUGGUCUCCUCACGUAGAAGGGG (ssRNA) [16.3 random region] | binds | 
11 | CAUGGGCUAGACCGGCAUAAAACUGCUGUAGUUGCACGCC (ssRNA) [17.9 random region] | binds | 
12 | UCAUGGUGUGUGAGUUAGCUCACGUGCCGUUUCGAAGGCG (ssRNA) [13.2 random region] |  | binding result [1]: binds
